Experimental data taken from patent publication US20220033784A1 (priority 2020, published 2022).
Read-outs that look alike come from different tables or passages of the source.

T1: human IL-2 receptor beta (IL-2Rβ, CD122), purified soluble (human, UniProt P14784 27-240)
T1 construct: also called hILR2β (CD122); human IL-2Rβ
T1 sequence (looked up): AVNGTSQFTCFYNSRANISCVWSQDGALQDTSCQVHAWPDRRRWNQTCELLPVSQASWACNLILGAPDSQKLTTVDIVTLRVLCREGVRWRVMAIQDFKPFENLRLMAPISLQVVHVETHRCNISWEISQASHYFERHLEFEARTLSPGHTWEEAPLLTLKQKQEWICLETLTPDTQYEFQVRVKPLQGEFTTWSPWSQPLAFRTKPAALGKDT

T2: human intermediate-affinity IL-2 receptor complex, IL-2 CD122/CD132 (β/γ), on cells (human, UniProt P14784 27-551; P31785 23-369)
T2 sequence (looked up) 1: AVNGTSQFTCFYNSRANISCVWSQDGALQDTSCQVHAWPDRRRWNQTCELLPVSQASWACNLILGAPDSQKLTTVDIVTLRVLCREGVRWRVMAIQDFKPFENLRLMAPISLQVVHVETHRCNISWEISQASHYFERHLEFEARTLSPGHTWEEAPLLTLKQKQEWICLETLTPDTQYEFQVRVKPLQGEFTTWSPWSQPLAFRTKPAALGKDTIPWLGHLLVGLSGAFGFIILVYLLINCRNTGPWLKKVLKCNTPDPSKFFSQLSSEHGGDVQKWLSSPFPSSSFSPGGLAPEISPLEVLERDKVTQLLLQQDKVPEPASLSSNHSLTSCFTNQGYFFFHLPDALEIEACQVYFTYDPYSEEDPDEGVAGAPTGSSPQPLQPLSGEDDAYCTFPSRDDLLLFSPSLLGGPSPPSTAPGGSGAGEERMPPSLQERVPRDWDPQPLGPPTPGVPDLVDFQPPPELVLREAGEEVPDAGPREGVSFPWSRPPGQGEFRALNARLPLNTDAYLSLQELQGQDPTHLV
T2 sequence (looked up) 2: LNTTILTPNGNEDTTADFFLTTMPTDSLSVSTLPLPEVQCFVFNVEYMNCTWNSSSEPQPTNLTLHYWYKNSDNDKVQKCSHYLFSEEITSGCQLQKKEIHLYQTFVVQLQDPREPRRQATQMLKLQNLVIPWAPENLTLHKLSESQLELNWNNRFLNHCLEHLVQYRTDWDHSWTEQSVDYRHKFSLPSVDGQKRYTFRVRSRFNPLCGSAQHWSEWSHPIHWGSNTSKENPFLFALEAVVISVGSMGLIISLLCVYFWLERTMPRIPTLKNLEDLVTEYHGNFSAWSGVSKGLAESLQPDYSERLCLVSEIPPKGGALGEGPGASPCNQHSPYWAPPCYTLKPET

T3: human high-affinity IL-2 receptor complex, IL-2 CD25/CD122/CD132 (α/β/γ), on cells (human, UniProt P01589 22-272; P14784 27-551; P31785 23-369)
T3 sequence (looked up) 1: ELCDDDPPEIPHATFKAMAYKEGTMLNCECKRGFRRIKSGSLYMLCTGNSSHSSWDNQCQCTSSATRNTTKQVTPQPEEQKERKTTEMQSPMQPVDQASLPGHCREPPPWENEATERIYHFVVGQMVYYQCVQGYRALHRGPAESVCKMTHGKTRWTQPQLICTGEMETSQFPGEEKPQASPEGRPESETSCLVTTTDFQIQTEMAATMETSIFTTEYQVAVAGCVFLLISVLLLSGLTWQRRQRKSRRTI
T3 sequence (looked up) 2: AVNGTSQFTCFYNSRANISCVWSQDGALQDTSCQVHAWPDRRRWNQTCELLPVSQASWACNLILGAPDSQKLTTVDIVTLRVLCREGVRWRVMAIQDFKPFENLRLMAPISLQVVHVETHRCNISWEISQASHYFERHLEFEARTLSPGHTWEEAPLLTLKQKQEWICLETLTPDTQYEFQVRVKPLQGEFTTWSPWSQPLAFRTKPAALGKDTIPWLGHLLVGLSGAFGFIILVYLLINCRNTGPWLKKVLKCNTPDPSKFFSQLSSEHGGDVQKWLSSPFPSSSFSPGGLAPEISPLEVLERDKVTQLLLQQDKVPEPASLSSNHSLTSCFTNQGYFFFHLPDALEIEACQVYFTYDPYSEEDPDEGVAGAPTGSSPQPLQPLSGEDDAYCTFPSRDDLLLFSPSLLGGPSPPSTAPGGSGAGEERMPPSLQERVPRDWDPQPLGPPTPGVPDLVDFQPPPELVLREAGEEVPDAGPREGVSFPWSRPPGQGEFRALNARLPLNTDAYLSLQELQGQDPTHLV
T3 sequence (looked up) 3: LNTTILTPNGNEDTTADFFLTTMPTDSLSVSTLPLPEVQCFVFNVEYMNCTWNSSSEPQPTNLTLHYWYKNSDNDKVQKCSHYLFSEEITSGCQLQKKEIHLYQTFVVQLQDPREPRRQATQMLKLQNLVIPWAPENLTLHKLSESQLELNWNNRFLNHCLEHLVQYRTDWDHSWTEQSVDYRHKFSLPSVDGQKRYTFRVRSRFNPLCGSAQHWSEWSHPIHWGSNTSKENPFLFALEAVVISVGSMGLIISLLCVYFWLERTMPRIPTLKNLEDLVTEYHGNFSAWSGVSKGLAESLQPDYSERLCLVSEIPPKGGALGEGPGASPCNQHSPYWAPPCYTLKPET

B1: Fc-IL2-R38N:L40T-K43N:Y45T (Fc fusion)
chain: GGGGSGGGGSAPTSSSTKKTQLQLEHLLLDLQMILNGINNYKNPKLTNMTTFNFTMPKKATELKHLQCLEEELKPLEEVLNLAQSKNFHLRPRDLISNINVIVLELKGSETTFMCEYADETATIVEFLNRWITFCQSIISTLT
B2: Fc-IL2-K43N:Y45T-E62N:K64T (Fc fusion)
chain: GGGGSGGGGSAPTSSSTKKTQLQLEHLLLDLQMILNGINNYKNPKLTRMLTFNFTMPKKATELKHLQCLEENLTPLEEVLNLAQSKNFHLRPRDLISNINVIVLELKGSETTFMCEYADETATIVEFLNRWITFCQSIISTLT
B3: Fc-IL2-K43N:Y45T-L72N:Q74T (Fc fusion)
chain: GGGGSGGGGSAPTSSSTKKTQLQLEHLLLDLQMILNGINNYKNPKLTRMLTFNFTMPKKATELKHLQCLEEELKPLEEVLNNATSKNFHLRPRDLISNINVIVLELKGSETTFMCEYADETATIVEFLNRWITFCQSIISTLT
B4: Fc-IL2-R38N:L40T-E62N:K64T (Fc fusion)
chain: GGGGSGGGGSAPTSSSTKKTQLQLEHLLLDLQMILNGINNYKNPKLTNMTTFKFYMPKKATELKHLQCLEENLTPLEEVLNLAQSKNFHLRPRDLISNINVIVLELKGSETTFMCEYADETATIVEFLNRWITFCQSIISTLT
B5: Fc-IL2-R38N:L40T-L72N:Q74T (Fc fusion)
chain: GGGGSGGGGSAPTSSSTKKTQLQLEHLLLDLQMILNGINNYKNPKLTNMTTFKFYMPKKATELKHLQCLEEELKPLEEVLNNATSKNFHLRPRDLISNINVIVLELKGSETTFMCEYADETATIVEFLNRWITFCQSIISTLT
B6: Fc-IL2-K43N:Y45T-E62N:K64T (protein)
chain: APTSSSTKKTQLQLEHLLLDLQMILNGINNYKNPKLTRMLTFNFTMPKKATELKHLQCLEENLTPLEEVLNLAQSKNFHLRPRDLISNINVIVLELKGSETTFMCEYADETATIVEFLNRWITFCQSIISTLT

Legend:
[1] = biological target: T1, human IL-2 receptor beta (IL-2Rβ, …); assay: SPR (Biacore 8K, 25 C), CD122 amine-coupled on CM5 chip, Fc-IL2 variant as analyte, 1:1 Langmuir fit
[2] = biological target: T2, human intermediate-affinity IL-2 …; assay: cell-based or functional assay
[3] = biological target: T3, human high-affinity IL-2 receptor …; assay: cell-based or functional assay
[4] = biological target: T2, human intermediate-affinity IL-2 …; assay: cell-based or functional assay; remark: listed apart in the source
[5] = biological target: T3, human high-affinity IL-2 receptor …; assay: cell-based or functional assay; remark: listed apart in the source
[6] = biological target: T2, human intermediate-affinity IL-2 …; assay: cell-based or functional assay; remark: listed apart in the source
[7] = system: HH cells (IL-2 CD122/CD132 (β/γ) receptor complex); assay: pSTAT5 ELISA in HH cells; type: cell-based
Description: (§1) The ability of the IL-2 variants to activate HH cells and iTregs was measured by monitoring relative changes in phosphorylated STAT5 (pSTAT5) in response to treatment of the cells with the IL-2 variants. pSTAT5 is known to be a downstream consequence of IL-2 signaling. HH T cells (ATCC CRL-2105) are a line of T cells that lack the alpha chain of the IL-2 receptor complex, but that contain the beta and gamma chains of the IL-2 receptor complex. iTreg cells were prepared from Fresh Leuko Paks obtained from […] Technologies (CAT #70500.1, Donor #D001003551).
(§2) For IL-2 activation, the HH cells and iTreg cells were plated at 2*10e6 cells/well in 50 ul serum-free RPMI 1640 media (Gibco), and allowed to rest at 37° C. After resting, cells were treated the IL-2 molecules listed above, and cells were then pelleted by centrifugation.
(§3) Following treatment with the IL-2 molecules, cell induction status was evaluated by the InstantOne ELISA pSTAT5 detection kit (Invitrogen).

[8] = system: iTreg cells (IL-2 CD25/CD122/CD132 (α/β/γ) receptor complex); assay: pSTAT5 ELISA in iTreg cells; type: cell-based; conditions: pSTAT5 level 50% of maximum, InstantOne ELISA; read-out: EC50 iTreg cell
Description: as §1, §2, §3

Row | Molecule | Kd [1] | koff [1] | kon [1] | EC50 (read off the curve), pSTAT5 MFI in NK cells of hPBMC [2] | EC50 (read off the curve), pSTAT5 MFI in Treg cells of hPBMC [3] | EC50, pSTAT5 induction in HH T cells (ELISA) [4] | EC50, pSTAT5 induction in iTreg cells (ELISA) [5] | EC50 (read off the curve), pSTAT5 MFI in NK cells of hPBMC [6] | also measured
1 | B1 | 3540 nM | 0.292 s⁻¹ | 82600 M⁻¹ s⁻¹ | ~8 nM | ~20 nM | 218 nM | 14.1 nM | ~8 nM | 
2 | B2 |  |  |  |  |  | 66.2 nM | 3.07 nM | ~6 nM | 
3 | B3 | 2620 nM | 0.235 s⁻¹ | 89900 M⁻¹ s⁻¹ |  |  | 65.2 nM | 4.49 nM | ~6 nM | 
4 | B4 |  |  |  | ~6 nM | ~20 nM |  |  |  | 
5 | B5 |  |  |  | ~6 nM | ~20 nM |  |  |  | 
6 | B6 |  |  |  |  |  |  |  |  | relative selectivity for HH cells vs iTreg cells among the tested molecules ([7]; Table C): greatest relative selectivity; Selectivity HH/iTreg ([7]; higher value = greater selectivity for HH cells): 4.64 × 10^−2; EC50 ([7]; pSTAT5 level 50% of maximum, InstantOne ELISA, read-out: EC50 HH T cell): 66.2 nM; EC50 [8]: 3.07 nM
